Reference: article PMC8986097, “SUMO-mediated recruitment allows timely function of the Yen1 nuclease in mitotic cells” (PLoS Genetics, 2022)
Residue numbers refer to the chain shown, from its start. Names and notes keep the numbering of the source.

B1: Yen1 SIM1-2ΔΔ (D635A D636A D637A V675A E677A), HA-tagged, purified (natural protein, S. cerevisiae, UniProt P40028 1-759, looked up)
chain: MGVSQIWEFLKPYLQDSRIPLRKFVIDFNKSQKRAPRIAIDAYGWLFECGFIQNIDISARSRSRSRSPTRSPRDSDIDSSQEYYGSRSYTTTGKAVINFISRLKELLSLNVEFLLVFDGVMKPSFKRKFNHEQNATTCDDEKEYYSSWEQHVKNHEVYGNCKGLLAPSDPEFISLVRKLLDLMNISYVIACGEGEAQCVWLQVSGAVDFILSNDSDTLVFGGEKILKNYSKFYDDFGPSSITSHSPSRHHDSKESFVTVIDLPKINKVAGKKFDRLSLLFFSVLLGADYNRGVKGLGKNKSLQLAQCEDPNFSMEFYDIFKDFNLEDLTSESLRKSRYRLFQKRLYLYCKDHSVELFGRNYPVLLNQGSFEGWPSTVAIMHYFHPIVQPYFDEEVLSDKYINMAGNGHYRNLNFNELKYFLQSLNLPQISSFDKWFHDSMHEMFLLREFLSIDESDNIGKGNMRITEEKIMNIDGGKFQIPCFKIRYTTFLPNIPISSQSPLKRSNSPSRSKSPTRRQMDIMEHPNSLWLPKYLIPQSHPLVIQYYETQQLIQKEKEKKGKKSNKSRLPQKNNLDEFLRKHTSPIKSIGKVGESRKEILEPVRKRLFVDTDEDTSLEEIPAPTRLTTVDEHSDNAAASLIFVDEITNSQSVLDSSPGKRIRDLTQDEQVDVWKDAIAISPIKKSRTTNAEKNPPESGLKSRSSITINARLQGTKMLPPNLTAPRLEREHSSVLDQLVTDAQDTVDRFVACDSDSSSTIE
B2: Yen1 SIM1Δ (D635A D636A D637A), HA-tagged, purified (natural protein, S. cerevisiae, UniProt P40028 1-759, looked up)
chain: B1 chain with A675V, A677E
B3: Yen1 SIM2Δ (V675A E677A), HA-tagged, purified (natural protein, S. cerevisiae, UniProt P40028 1-759, looked up)
chain: B1 chain with A635D, A636D, A637D

biological target: GST-Smt3 (S. cerevisiae, UniProt Q12306 1-101 = SUMO); experiment: cell-based or functional assay
Sequence (Q12306 whole entry): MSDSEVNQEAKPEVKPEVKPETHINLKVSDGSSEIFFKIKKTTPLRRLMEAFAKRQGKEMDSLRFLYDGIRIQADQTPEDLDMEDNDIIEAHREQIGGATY

Row | Binder | fraction of SUMOylated Yen1 recovered by denaturing Ni-NTA pull-down of 6xHis-Smt3 from cells grown in 0.3% MMS, relative to wild-type Yen1
1 | B1 | 1%
2 | B2 | 5%
3 | B3 | ~20%
